Reference: patent US20240360204A1 (UNITED STATES GOVERNMENT AS REPRESENTED BY THE DEPARTMENT …, published 2024)

B1: hu55C11λ (antibody, human IgG1, V domains shown)
VH: QVQLVESGGGLVKPGGSLRLSCAASGFTFSSHSMNWVRQTPGKGLEWVSSINTISTFIYYADSVKGRFTVSRDNARNSLFLQMNTLTADDTGVYYCARERGNRFCDGDCYSGTTFDYWGPGTLVTVSS
VL: QPVLTQPPSVSVAPGRTSRITCEENNIGTKNVHWYQQKPGQAPLLVVHDDSDRPSGIPERFSGSNSGNTATLTISRVEAGDEADYYCQVWDSDNDRWLFGGGTRLTVLG
notes: also called 55c11 IgG antibody
B2: hu55G4λ (antibody, human IgG1, V domains shown)
VH: EVQLVQSGGGAVQPGRSLRLSCAVSGFTFSNFPMHWVRQAPGRGLEWVAVISHDETMIYYLDSVKGRFTISRDNSRNIVYLQMHSLRVEDTAVYYCARDTGVCSGGYCYTPRYFDQWGQGTLVTVSS
VL: QPVLTQPPSVSVAPGKTADITCGGDNIGRKHVHWYRQRPSQAPLLVIYDDSDRPSGIPERLSGINSGNTATLTISGVEVGDEADYYCQVWDNDAEQWVFGGGTKLTV
notes: also called 55G4 IgG antibody; 55LG4
B3: hu55L17κ (antibody, human IgG1, V domains shown)
VH: QVQLVQSGAEVKKPGSSVKVSCRPPGGTLSNYAINWVRQAPGQGLEWMGGIVPMFSTTKYAQKFQGRLTLTADLSTITAHMELNRLTSEDTAVYYCARDLPAPYCSADLCYKVLDAFDVWGQGTLVTVSS
VL: EIVLTQSPSSLSASVGDRVTITCQASQDISNYLNWYQQKPGKAPKLLIYKASSLESGVPSRFSGSGSGTEFTLTITRLQPDDFATYYCQQYEEYLRYSFGQGTKLEIK
notes: also called 55L17 IgG antibody

Assays:
[1] = biological target: T1, Oxygen stable streptolysin O (SLOwt) from Streptococcus pyogenes, recombinant, N-terminal His-tag, BirA … (Streptococcus pyogenes, UniProt Q5XE40 32-571, limits assumed, mono-biotinylated at the BirA (AviTag) site where biotinylated SLOwt was used (ELISA; one lane of the Western blot)); assay: cell-based or functional assay
[2] = biological target: T1, Oxygen stable streptolysin O (SLOwt) …; assay: ELISA

Binder | aCTX IC50 (M): anti-cytotoxicity on epithelial cells (A549) [1] [M] | aHU IC50 (M): neutralization of SLOwt-induced RBC hemolysis [1] [M] | aMBEP IC50 (M): anti-membrane binding on epithelial cells [1] [M] | aMBRBC IC50 (M): anti-membrane binding on RBCs [1] [M] | Kd [2] [nM]
B1 | 2.6e-09 | 4.4e-09 | 1.1e-09 | 1.3e-09 | 0.038
B2 | 5.1e-09 | 6.3e-09 | 2e-09 | 7.9e-09 | 0.046
B3 | 1.1e-09 | 2.7e-09 | – | – | 0.078
